Measured values as given in paper PMC12703665, “A Trifunctional, Rare-Earth Theranostic Chelator Platform to Enable Diagnostic Nuclear Imaging, Surgical Resection, and Radiotherapy” (Journal of the American Chemical Society, 2025).
Read-outs that look alike come from different tables or passages of the source.

Tests used:
[1] = LogD7.4 lipophilicity measurements (1-octanol/DPBS); format: physicochemical; conditions: 86Y-labeled tracer, 1-octanol/DPBS pH 7.4
Protocol: Figure S49. Chromatographic analysis of [177Lu]Lu-PSMA-617 and its corresponding non-radioactive reference complex. Absorbance of non-radioactive samples was monitored at 254 nm.
[161Tb]TbCl3 (9.34 µL, 4.0 mCi) and PSMA-617 (12.2 µL, 9.80 µM) were dissolved in a mixture of NaOAc buffer (20.0 µL, 1 M, pH 5.5), DMSO (20.0 µL) and water (38.4 µL). The resulting mixture was vortexed and heated at 80 °C for 20 minutes. Quantitative labeling was confirmed via radio-HPLC (Method D, Rt = 7.73 min – Absorbance monitored at 254 nm).
Figure S50. Chromatographic analysis of [161Tb]Tb-PSMA-617 and its corresponding non-radioactive […]
4.3 LogD7.4 Lipophilicity Measurements pepa-pic2, mepa-pic2, pepa2-pic and pepa2-pic-PSMA were radiolabeled with [86Y]YCl3 and formulated in DPBS 1X pH 7.4 at a concentration of 25-29 µCi/mL. […] Samples were centrifuged for 5 min at 5000 rpm to separate (also on this page, place not known: 02468101214161820 Time (min) Normalized Absorbance (a.u) Normalized Counts (cps) 02468101214161820 Time (min) Normalized Absorbance (a.u) Normalized Counts (cps)) […]
both layers. […] LogD7.4 values calculated according […]
Female BALB/c mice were purchased from Jackson Laboratory. Biodistribution profiles of Y-86 labeled mepa-pic2, pepa-pic2 and […] were first evaluated in healthy naïve mice. […]
Table S1. […] Values expressed as % ID/g. Error expressed as ± 1 SD for n = 4. […]

[2] = system: PC-3 PIP/flu (PSMA+/PSMA–) tumor xenografts
Protocol: For in vivo evaluation, athymic nude mice-bearing bilateral PC-3 PIP/flu (PSMA^+/PSMA^–) tumor xenografts were used (Figure ).
Representative PET-CT (Y-86) or SPECT (Lu-177, Tb-161) images were acquired at different time points starting as early as 0.5 h and up to 25-hours post administration of radiotracer. Mice were initially anesthetized with isoflurane gas at 4% isoflurane in oxygen and maintained during scans at 2.0%. PET-CT and SPECT images were normalized to units of percentage of injected dose per cubic centimeter and presented as maximum intensity projected scan (MIPS) images.
PET-CT scans were acquired in a Siemens Inveon Hybrid MicroPET/CT Scanner (Siemens Medical Solutions USA, Inc., Knoxville, TN), and image processing and region of interest (ROI) analysis conducted using the Inveon Research Workstation analysis software. ROI analysis of the PET/CT images was used to estimate tracer uptake in major organs or tissues, and quantitative results are given as percentage of injected dose per cubic centimeter (%ID/cc).
SPECT scans, on the other hand, were collected in a MILabs U-SPECT/CTUHR (ultra high-resolution) system and image processing was carried out using Imalytics preclinical image analysis software.

COCCOCCOCCOc1ccc(C#Cc2cc(CN3CCN(Cc4cccc(C(=O)O)n4)CCN(Cc4cc(SC[C@H](N)C(=O)NCCCCCC(=O)NCCCC[C@H](NC(=O)N[C@@H](CCC(=O)O)C(=O)O)C(=O)O)cc(C(=O)O)n4)CC3)nc(C(=O)O)c2)cc1 [[86Y]Y-pepa-pic2-C-Hex-KuE, metal not drawn]
logD7.4 [1]: −2.98
Bone (ROI) ([2]; 0.5 h): 1.3 ± 0.5 %ID/cc
Heart (ROI) ([2]; 0.5 h): 1.7 ± 0.5 %ID/cc
L. Kidney (ROI) ([2]; 0.5 h): 12.7 ± 1.6 %ID/cc
Liver (ROI) ([2]; 0.5 h): 1.4 ± 0.5 %ID/cc
Muscle (ROI) ([2]; 0.5 h): 0.8 ± 0.3 %ID/cc
R. Kidney (ROI) ([2]; 0.5 h): 12.0 ± 2.4 %ID/cc
Tumor + (ROI) ([2]; 0.5 h): 4.6 ± 1.7 %ID/cc
accumulation in the PSMA- tumor (PET/CT) ([2]; 0.5 h post-injection): no significant accumulation
Bone (ROI) ([2]; 1 h): 1.0 ± 0.5 %ID/cc
Heart (ROI) ([2]; 1 h): 1.2 ± 0.3 %ID/cc
L. Kidney (ROI) ([2]; 1 h): 12.2 ± 5.5 %ID/cc
Liver (ROI) ([2]; 1 h): 1.1 ± 0.3 %ID/cc
Muscle (ROI) ([2]; 1 h): 0.8 ± 0.4 %ID/cc
R. Kidney (ROI) ([2]; 1 h): 11.9 ± 3.0 %ID/cc
Tumor + (ROI) ([2]; 1 h): 4.4 ± 1.8 %ID/cc
Bone (ROI) ([2]; 1.5 h): 0.8 ± 0.4 %ID/cc
Heart (ROI) ([2]; 1.5 h): 1.0 ± 0.5 %ID/cc
L. Kidney (ROI) ([2]; 1.5 h): 12.2 ± 3.4 %ID/cc
Liver (ROI) ([2]; 1.5 h): 0.9 ± 0.4 %ID/cc
Muscle (ROI) ([2]; 1.5 h): 0.6 ± 0.4 %ID/cc
R. Kidney (ROI) ([2]; 1.5 h): 12.7 ± 2.9 %ID/cc
Tumor + (ROI) ([2]; 1.5 h): 5.2 ± 1.8 %ID/cc
Bone (ROI) ([2]; 4 h): 0.5 ± 0.3 %ID/cc
Heart (ROI) ([2]; 4 h): 0.5 ± 0.3 %ID/cc
L. Kidney (ROI) ([2]; 4 h): 8.8 ± 1.9 %ID/cc
Liver (ROI) ([2]; 4 h): 0.7 ± 0.4 %ID/cc
Muscle (ROI) ([2]; 4 h): 0.4 ± 0.2 %ID/cc
R. Kidney (ROI) ([2]; 4 h): 8.8 ± 2.3 %ID/cc
Tumor + (ROI) ([2]; 4 h): 5.2 ± 1.7 %ID/cc
Bone (ROI) ([2]; 25 h): 0.3 ± 0.2 %ID/cc
Heart (ROI) ([2]; 25 h): 0.1 ± 0.1 %ID/cc
L. Kidney (ROI) ([2]; 25 h): 4.0 ± 1.2 %ID/cc
Liver (ROI) ([2]; 25 h): 0.3 ± 0.2 %ID/cc
Muscle (ROI) ([2]; 25 h): 0.3 ± 0.3 %ID/cc
R. Kidney (ROI) ([2]; 25 h): 4.0 ± 1.2 %ID/cc
Tumor + (ROI) ([2]; 25 h): 3.3 ± 1.0 %ID/cc
